Measurements taken from patent US6740496B1, “Determination of biologically active forms of proteolytic enzymes” (Synapse B.V., priority 1999, dated 2004).

Experiments:
Format in all cases: biochemical
[1] = target: T1, human α2M-IIa (Homo sapiens, UniProt P00734); assay: Hydrolysis of OA-AR-AMC by thrombin inactivated by α2M (AMC fluorescence)
T1 construct: The formation of thrombin in clotting blood or plasma arises from prothrombin by an enzymatic controlled reaction
Method: (§1) The assay was carried out at 25° C. in 96 well Microfluor W “U” bottomed micro titre plates (Dynex, London, UK) in 10 mM HEPES, 5 mM CaCl2, 0.02% sodium azide, pH 8.0). In case of -∘- the vessel contained 5.5 μM OA-AR-AMC (Ala-Arg-AMC coupled to ovalbumin) and 85 nM human thrombin and in case of -∇-5.5 μM OA-AR-AMC and 65 μM human α2M-IIa. The black symbols (-●- and -▾-) were obtained by fitting assuming that the substrate is hydrolysed by thrombin according to Michaelis-Menten kinetics. […] For hydrolysis by α2M-IIa the already derived S0 and Km were found and kcat=0.008 s^−1.

[2] = target: T2, human thrombin (Homo sapiens, UniProt P00734); assay: Hydrolysis of OA-AR-AMC by free thrombin (AMC fluorescence); conditions: 5.5 μM OA-AR-AMC, 85 nM human thrombin, 25° C., pH 8.0, Michaelis-Menten fit
T2 construct: The formation of thrombin in clotting blood or plasma arises from prothrombin by an enzymatic controlled reaction
Method: as §1

[3] = target: T1, human α2M-IIa; assay: Amidolytic activity of human α2M-IIa towards OA-S2288 (pNA release, OD 405 nm)
Method: (§2) The amidolytic activity of human thrombin and human α2M-IIa towards OA-S2288 was measured. The reaction mixtures contained 22 μM OA-S2288, 50 nM thrombin or α2M-IIa and 175 mM NaCl, 50 mM Tris-HCl, 2 mg/ml ovalbumin (pH 7.9).
(§3) In FIG. 2 the amount of free p-nitroanilide (pNA) formed, expressed as milli optical density at 405 nm, is plotted against the time. The reaction temperature was 37° C. The grey curves are the measured data, whereas the black line is obtained by fitting, assuming that product formation occurs according to Michaelis-Menten kinetics.
(§4) Product formation in time can be described as: E.kcat. St/(Km+St), in which St is the substrate concentration in time (i.e. the substrate concentration originally present (S0) minus the formed product or split substrate, and E is the enzyme that splits the substrate, either thrombin or α2M-IIa.

[4] = target: T2, human thrombin; assay: Amidolytic activity of human thrombin towards OA-S2288 (pNA release, OD 405 nm); conditions: Michaelis-Menten fit
Method: as §2, §3, §4

| Substance | kcat ([1]; 5.5 μM OA-AR-AMC, 65 μM human α2M-IIa, 25° C., pH 8.0, Michaelis-Menten fit) | Km ([1]; hydrolysis by α2M-IIa, the already derived S0 and Km) | hydrolysis by thrombin entrapped in α2M (in words) ([1]; ovalbumin coupled to Ala-Arg-AMC) | Km [2] | kcat [2] | kcat ([3]; E is α2M-IIa, 22 μM OA-S2288, 50 nM enzyme, 37° C., Michaelis-Menten fit) | hydrolysis by α2M-IIa (in words) ([3]; ovalbumin coupled to S2288) | Km ([4]; 22 μM OA-S2288, 50 nM thrombin, pH 7.9, 37° C.) | kcat ([4]; E is thrombin, 22 μM OA-S2288, 50 nM enzyme, 37° C.) |
| --- | --- | --- | --- | --- | --- | --- | --- | --- | --- |
| ovalbumin coupled to H-alanyl-L-arginine-7-amido-4-methyl-coumarin [OA-AR-AMC] | 0.008 s⁻¹ | 1.2 µM | will not be split anymore by thrombin entrapped in the cavity of α2M | 1.2 µM | 3.3 s⁻¹ | – | – | – | – |
| ovalbumin coupled to H-D-isoleucyl-L-prolyl-L-arginine-p-nitroanilide.2HCl [OA-S2288] | – | – | – | – | – | 0.002 s⁻¹ | loses its ability to be hydrolysed by α2M-IIa, but not by thrombin | 1.47 µM | 0.31 s⁻¹ |
